Experimental data as given in patent publication US20240410900A1 (Hoffmann-La Roche, published 2024).

Legend:
[1] = target: T1, anti-VEGF/ANG2 antibody (IgG1 subclass with mutations P329G/L234A/L235A/I253A/H310A/H435A); experiment: ELISA assay C, tracer FcγRI-Dig, target 25 ng/mL
T1 construct: Format of the bispecific antibody not described; Positions are EU numbers, not positions on the UniProt entry; also called sample 1; antibody 1

[2] = target: T2, anti-P-Selectin antibody (IgG4 subclass with mutations S228P/L235E); experiment: ELISA assay C, tracer FcγRI-Dig, target 25 ng/mL
T2 construct: Positions are EU numbers; also called sample 4; antibody 4

[3] = target: T3, anti-VEGF/ANG2 antibody (IgG1 subclass with mutations P329G/L234A/L235A); experiment: ELISA assay C, tracer FcγRI-Dig, target 25 ng/mL
T3 construct: Positions are EU numbers; also called sample 2; antibody 2

[4] = target: T4, anti-VEGF/ANG2 antibody (wild-type IgG1 subclass) (UniProt P01857-1 1-330 = IgG part); experiment: ELISA assay C, tracer FcγRI-Dig, target 25 ng/mL
T4 construct: also called sample 5; antibody 5

[5] = target: T5, anti-IGF-1R antibody (IgG1 subclass with mutations I253A/H310A/H435A); experiment: ELISA assay C, tracer FcγRI-Dig, target 25 ng/mL
T5 construct: Positions are EU numbers; also called sample 3; antibody 3

[6] = target: T1, anti-VEGF/ANG2 antibody (IgG1 subclass …); experiment: ELISA assay B, tracer M1.7.10-Dig, target 0 ng/mL (blank)
Description: (§1) Biotinylated anti-PG Fc-region antibody or biotinylated anti-AAA Fc-region antibody, respectively, was bound to the wells of a streptavidin-coated multi-well plate (SA-MTP) to produce a capture plate. Excess of unbound antibody was removed by washing. Sample/standard antibodies spiked in human and cynomolgus monkey serum (10% final concentration) was added to wells of the SA-MTP multi-well plate coated with the capture plate and incubated for 1 hour at room temperature. After washing, the wells were incubated with digoxygenylated anti-human kappa antibody M1.7.10 (see e.g. WO 2011/048043, incorporated herein by reference). After washing the bound digoxygenylated anti-human kappa antibody complex was incubated with a horseradish peroxidase (HRP) labelled anti-digoxygenin antibody. After another washing step, an ABTS solution was added to the wells and incubated. The product of the color reaction was measured by Elisa reader at 405 nm wavelength (reference wavelength: 490 nm). Absorbance values of each sample or standard were determined in triplicates.

[7] = target: T2, anti-P-Selectin antibody (IgG4 subclass …); experiment: as above
Description: as §1

[8] = target: T3, anti-VEGF/ANG2 antibody (IgG1 subclass …); experiment: as above
Description: as §1

[9] = target: T4, anti-VEGF/ANG2 antibody (wild-type IgG1 …); experiment: as above
Description: as §1

[10] = target: T5, anti-IGF-1R antibody (IgG1 subclass …); experiment: as above
Description: as §1

[11] = target: T1, anti-VEGF/ANG2 antibody (IgG1 subclass …); experiment: ELISA assay B, tracer M1.7.10-Dig, target 3 ng/mL
Description: as §1

[12] = target: T2, anti-P-Selectin antibody (IgG4 subclass …); experiment: ELISA assay B, tracer M1.7.10-Dig, target 3 ng/mL
Description: as §1

[13] = target: T3, anti-VEGF/ANG2 antibody (IgG1 subclass …); experiment: ELISA assay B, tracer M1.7.10-Dig, target 3 ng/mL
Description: as §1

[14] = target: T5, anti-IGF-1R antibody (IgG1 subclass …); experiment: ELISA assay B, tracer M1.7.10-Dig, target 3 ng/mL
Description: as §1

[15] = target: T1, anti-VEGF/ANG2 antibody (IgG1 subclass …); experiment: ELISA assay C, tracer FcγRI-Dig, target 100 ng/mL
[16] = target: T2, anti-P-Selectin antibody (IgG4 subclass …); experiment: ELISA assay C, tracer FcγRI-Dig, target 100 ng/mL
[17] = target: T3, anti-VEGF/ANG2 antibody (IgG1 subclass …); experiment: ELISA assay C, tracer FcγRI-Dig, target 100 ng/mL
[18] = target: T4, anti-VEGF/ANG2 antibody (wild-type IgG1 …); experiment: ELISA assay C, tracer FcγRI-Dig, target 100 ng/mL
[19] = target: T5, anti-IGF-1R antibody (IgG1 subclass …); experiment: ELISA assay C, tracer FcγRI-Dig, target 100 ng/mL
[20] = target: T1, anti-VEGF/ANG2 antibody (IgG1 subclass …); experiment: ELISA assay C, tracer FcγRI-Dig, target 50 ng/mL
[21] = target: T2, anti-P-Selectin antibody (IgG4 subclass …); experiment: ELISA assay C, tracer FcγRI-Dig, target 50 ng/mL
[22] = target: T3, anti-VEGF/ANG2 antibody (IgG1 subclass …); experiment: ELISA assay C, tracer FcγRI-Dig, target 50 ng/mL
[23] = target: T4, anti-VEGF/ANG2 antibody (wild-type IgG1 …); experiment: ELISA assay C, tracer FcγRI-Dig, target 50 ng/mL

signal [OD405 nm] [1] [OD405 nm] | signal [OD405 nm] [2] [OD405 nm] | signal [OD405 nm] [3] [OD405 nm] | signal [OD405 nm] [4] [OD405 nm] | signal [OD405 nm] [5] [OD405 nm] | signal [OD405 nm] [6] [OD405 nm] | signal [OD405 nm] [7] [OD405 nm] | signal [OD405 nm] [8] [OD405 nm] | signal [OD405 nm] [9] [OD405 nm] | signal [OD405 nm] [10] [OD405 nm] | signal [OD405 nm] [11] [OD405 nm] | signal [OD405 nm] [12] [OD405 nm] | signal [OD405 nm] [13] [OD405 nm] | signal [OD405 nm] [14] [OD405 nm] | signal [OD405 nm] [15] [OD405 nm] | signal [OD405 nm] [16] [OD405 nm] | signal [OD405 nm] [17] [OD405 nm] | signal [OD405 nm] [18] [OD405 nm] | signal [OD405 nm] [19] [OD405 nm] | signal [OD405 nm] [20] [OD405 nm] | Binder | other results
1.07 | 1.17 | 1.21 | 1.16 | 1.2 | 0.035 | 0.049 | 0.038 | 0.043 | 0.045 | 0.036 | 0.05 | 0.165 | 0.047 | 1.19 | 1.17 | 1.22 | 1.18 | 1.2 | 1.17 | anti-PG variant Fc-region antibody M1.3.17 (antibody, V domains shown, Monomeric, bivalent full-length antibody with murine variable domains; Biotinylated when used as capture antibody; also called anti-PG antibody clone 1.3.17; M1.3.17-Bi) VH: EVKLLESGGGLVQPGGSLKLSCAASGIDFRRYWMNWVRQAPGKGLEWIGEIDPDSSTINYTPSLKDKFIISRDNAKNTMYLQMRKVRSEDTALYYCARPYDYGAWFAYWGQGTLVTVSA VL: QAVVTQESALTTSPGETVTLTCRSTTGAVTTSNYANWVQEKPDHLFTGLIGGTNKRAPGVPARFSGSLIGDKAALTITGAQTEDEAIYFCALWYSDHWVFGGGTKLTVL | signal [OD405 nm] [21]: 1.15 OD405 nm; signal [OD405 nm] [22]: 1.21 OD405 nm; signal [OD405 nm] [23]: 1.16 OD405 nm
0.082 | 0.07 | 0.083 | 0.063 | 0.073 | 0.049 | 0.035 | 0.046 | 0.039 | 0.04 | 0.04 | 0.031 | 2.51 | 0.046 | 0.05 | 0.08 | 0.082 | 0.073 | 0.11 | 0.084 | anti-PG variant Fc-region antibody M1.7.24 (monomeric, bivalent) (antibody, V domains shown, Full-length Y-shaped antibody with murine variable domains; Biotinylated when used as capture antibody; also called anti-PG antibody clone 1.7.24; M1.7.24-Bi) VH: EVKLLESGGGLVQPGGSLKLSCAASGFDFSRYWMNWVRQAPGKGLEWIGEITPDSSTINYTPSLKDKFIISRDNAKNTLYLQMIKVRSEDTALYYCVRPYDYGAWFASWGQGTLVTVSA VL: QAVVTQESALTTSPGETVTLTCRSSTGAVTTSNYANWVQEKPDHLFTGLIGGTNKRAPGVPARFSGSLIGDKAALTITGAQTEDEAIYFCALWYSNHWVFGGGTKLTVL | signal [OD405 nm] [21]: 0.066 OD405 nm; signal [OD405 nm] [22]: 0.094 OD405 nm; signal [OD405 nm] [23]: 0.066 OD405 nm
0.081 | 0.06 | 0.063 | 0.066 | 0.401 | 0.047 | 0.038 | 0.038 | 0.037 | 0.037 | 0.039 | 0.039 | 0.044 | 2.26 | 0.079 | 0.069 | 0.076 | 0.076 | 2.1 | 0.077 | anti-AAA variant Fc-region antibody M1.6.22 (antibody, V domains shown, Murine variable domains; also called M1.6.22-Bi) VH: EVQLVESGGDLVKPGGSLKLSCAASGFTFSSYGMSWVRQTPDKRLEWVATISSGGSYIYYPDSVKGRFTISRDNAKNTLYLQMSSLKSEDTAMYYCARLGMITTGYAMDYWGQGTSVTVSS VL: DVLMTQTPLSLPVSLGDQASISCRSSQTIVHSTGHTYLEWFLQKPGQSPKLLIYKVSNRFSGVPDRFSGSGSGTDFTLKISRVEAEDLGVYYCFQGSHVPYTFGGGTKLEIK | signal [OD405 nm] [21]: 0.054 OD405 nm; signal [OD405 nm] [22]: 0.057 OD405 nm; signal [OD405 nm] [23]: 0.067 OD405 nm
